Where no end group is shown, it is not given here. [ ]: non-standard residue; d: D form. The star is where a group is joined. pY = N[C@@H](Cc1ccc(OP(=O)(O)O)cc1)C(=O)O; Dansyl = CN(C)c1cccc2c(S(=O)(=O)*)cccc12
Molecular target: T1, Gab2 448-460 (Homo sapiens)
T1 chain: Dansyl-TNSEDN[pY]VPMNPG
Experiment: stopped-flow FRET

Kd: 200 nM
B1: PI3K p85alpha N-SH2 N-SH2 (protein)
chain: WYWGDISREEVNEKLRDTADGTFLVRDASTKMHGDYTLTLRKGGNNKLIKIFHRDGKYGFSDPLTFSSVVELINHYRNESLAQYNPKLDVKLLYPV
